Laboratory results from the supplement of paper PMC9732359.
± gives the uncertainty stated by the source.

Assay: protein stability index of a GFP-peptide fusion (yeast GPS) (PSI 1-4); higher = more stable; sorted into four equal gates, so the index is relative within each strain
Settings: doa10∆
In short: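 Plasmids in a pooled yeast library fused tiled 17-residue yeast protein peptides downstream of GFP and also expressed Cherry. Mid-log cultures grown without leucine were sorted into four equal gates by GFP/Cherry fluorescence ratio. Each gate's plasmids were PCR-amplified and Illumina-sequenced, and reads were matched to strains by barcodes. The protein stability index is derived by multiplying each gate's read frequency by its gate number and summing the results.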

Point of comparison: DNWRREFLKWTPNVNVL [ISW2], protein stability index 1.46 ± 0.098. Against it:
- DKKLNLNLPLQFSLPNG [SNF12] — higher, 3.04 ± 0.085
- DKKNSSDPNNQSLNEMV [YJL039C/NUP192] — higher, 3.07 ± 0.1
- DKKVLVKVQPEGKYIVD [RPT6] — higher, 3.23 ± 0.081
- DKLDDDGLIAPGVRVSG [RPB2] — within error, 1.65 ± 0.19
- DKLELYVLRNVLRIPEE [MTW1] — higher, 3 ± 0.13
- DKLPQFVDENTFQRVCQ [RPN1] — higher, 3.04 ± 0.082
- DKLWTLIPEDKRDQYLK [RPL28] — higher, 3.32 ± 0.19
- DKLYIHFVQEEPLAFYL [RGR1] — higher, 2.21 ± 0.041
- DKSIDTSSLQLYKFQNF [YML103C/NUP188] — higher, 2.67 ± 0.064
- DLAFGGEANKHHWEDLQ [RPN5] — higher, 3.09 ± 0.12
- DLALPPPPPPPPGYEIE [PRP8] — higher, 3.08 ± 0.088
- DLDLNEQVRKMYQEWED [NSL1] — higher, 2.97 ± 0.13
- DLDTVLKKDIESLRGIL [SRP72] — within error, 1.63 ± 0.088
- DLEKTERIVVSYEYYNI [SMC2] — higher, 2.76 ± 0.073
- DLESMGLTQLYKKSTEN [MED7] — higher, 2.9 ± 0.071
- DLIAEQVVTDYNILGNL [SSN2] — higher, 2.52 ± 0.074
- DLQKLLKGIQEFGADWY [SWI3] — higher, 3.1 ± 0.062
- DLQNLNLNTDKLKNNAS [YJL039C/NUP192] — higher, 2.54 ± 0.11
- DLRLGSQSLGVSNKFEK [PUP3] — higher, 3.52 ± 0.14
- DLSLNITLHPSFFGPRM [RPB7] — higher, 2.25 ± 0.22
- DLTLDDISLKADLERFF [YJL039C/NUP192] — higher, 3.29 ± 0.053
- DLTNNPQDDDSQSKMMS [MTR3] — higher, 3.17 ± 0.084
- DMANEIILSIDEHHESF [RRP6] — higher, 3.01 ± 0.068
- DMDAQGRSDSNTEEKAE [YGL100W/SEH1] — within error, 1.57 ± 0.038
- DMGMQQELCYPDENHDN [BRN1] — higher, 3.22 ± 0.073
- DMNSNLQVLKRERDGIK [SMC1] — higher, 3.01 ± 0.093
- DNCCDFKVRTNLNDKFG [MED1] — higher, 2.74 ± 0.19
- DNNITEMLEENFPEASK [YCG1] — higher, 2.48 ± 0.097
- DNNNTTNNDSNNKNNSI [MED2] — higher, 2.83 ± 0.049
- DNRTKSTTIKNIDILNR [SMC4] — higher, 1.85 ± 0.062
- DNVSGLTRNAPLDSKDE [SNF2] — higher, 2.95 ± 0.063
- DNWNAPLIMATCGSKGS [RPO31] — higher, 2.57 ± 0.2
- DPDNTSFSDENSDDFFM [ESC2] — higher, 2.31 ± 0.13
- DPDTKKVKESPANDQAS [YIL149C/MLP2] — higher, 3.04 ± 0.084
- DPHSASLINSHLKILAS [RPC82] — higher, 2.15 ± 0.22
- DPKLEKCLNYRNVNWIE [ITC1] — higher, 2.96 ± 0.069
- DPLYDITKVPALEFLNT [REC8] — higher, 2.32 ± 0.069
- DPPFRIEEQGWGGFPLD [TAF14] — higher, 3.32 ± 0.055
- DPRIAPLRGALATYGLT [FAS2] — higher, 2.37 ± 0.1
- DPSISNNIRQAICRYAN [RRP4] — higher, 2.09 ± 0.077
- DPVEGNLEFDSTNHPDY [SRP14] — higher, 2.9 ± 0.066
- DPYELKGEVVLVNIRTQ [ITC1] — within error, 1.57 ± 0.098
- DQCVGQVGLNFELSFTG [YMR129W/POM152] — higher, 2.94 ± 0.061
- DQDELVQPPLDKFPYKK [SWP82] — higher, 3.11 ± 0.088
- DQKFGVPVRSFKGHSHI [ASC1] — higher, 3.11 ± 0.092
- DQNNATMGEETAKKDMS [SNF12] — higher, 3.44 ± 0.082
- DRELSVRNACKRLIAHD [YCG1] — higher, 2.59 ± 0.097
- DRIYMLFHFEEDEGEEL [PRP8] — higher, 1.64 ± 0.065
- DRSLADDYDYVMYGTAY [RPB8] — higher, 2.56 ± 0.059
- DRVEDICERIFEQGQAL [RRI2] — higher, 2.72 ± 0.12
- DRVFNVPTIGVVNSNFA [YJR042W/NUP85] — higher, 2.57 ± 0.08
- DSELNRALFETKLNLHC [RRI1] — higher, 2.75 ± 0.067
- DSESESGDKEATAPLIQ [RPN8] — higher, 3.44 ± 0.19
- DSIPLRITNSFYSTNSQ [RPN9] — higher, 2.56 ± 0.14
- DSKMIQDLSRNTLGKGQ [SNU114] — higher, 3.25 ± 0.098
- DSLENNEGVPSPMLSIS [FAS1] — higher, 3.08 ± 0.077
- DSLIFKDSSLNYSSESY [YJL039C/NUP192] — higher, 3.43 ± 0.089
- DSLNEWIKFDQELYNEL [RPN7] — higher, 3.18 ± 0.11
- DSLNQLEIRNKICSSEM [RGR1] — higher, 2.24 ± 0.22
- DSMLFVFGFRANKMRQD [SMC4] — higher, 2.27 ± 0.072
- DSVLLNRGNKKRHRSSY [YML031W/NDC1] — higher, 3.03 ± 0.099
- DSYIALYEKDIVPSMTH [RET1] — higher, 2.5 ± 0.066
- DTKLKAHELQSEDVSRD [YIL149C/MLP2] — higher, 2.77 ± 0.058
- DTLCGIRKLTLRDTFIE [RPO21] — higher, 2.91 ± 0.085
- DTLKENATEVQKESDAK [ITC1] — higher, 2.87 ± 0.11
- DTSRPDLEWQELTSFSS [DSN1] — higher, 3.18 ± 0.053
- DTSTQAYEEEEENEDND [NUT1] — higher, 3.24 ± 0.13
- DTVAELQAQLDYLNAEL [FAS2] — higher, 2.81 ± 0.092
- DVAAKCKEVGITAVHVK [RPS14A] — higher, 2.56 ± 0.057
- DVAFLKTAYSIYLSQNE [RPN1] — higher, 2.25 ± 0.052
- DVEIGRMPIMLRSNKCI [RET1] — within error, 1.23 ± 0.15
- DVHNGYILRYLHANGAS [COB] — higher, 2.83 ± 0.096
- DVKCWSKFIEKFQDIVS [MED1] — higher, 1.83 ± 0.12
- DVKSSDSLKLNSKPVEL [YJL041W/NSP1] — higher, 3.27 ± 0.098
- DVNEKIRFRIEREVFVD [RPC25] — higher, 1.81 ± 0.074
- DVNSASKSESDSQIVTP [RRP4] — higher, 3.17 ± 0.088
- DVSIEELLREWLETYSE [IRR1] — higher, 3.38 ± 0.056
- DVTALLEQGFKVVSAKE [YCS4] — higher, 2.48 ± 0.12
- DVVERLHKNFESENFKI [RGR1] — higher, 3.74 ± 0.18
- DVVMKATEPQMVLFNIY [PRP8] — higher, 2.03 ± 0.046
- DVYTLPSYVHFKVQIIE [YML103C/NUP188] — within error, 1.61 ± 0.055
- DWIRFVSIRQNQYKLVF [RPL22B] — within error, 1.37 ± 0.076
- DYFFYFLVLYDVKTAEE [NUT1] — within error, 1.52 ± 0.043
- DYISGISVGLYDTTPLL [SKI6] — higher, 2.42 ± 0.12
- DYPDDSGWTPFHIACSV [NAS6] — higher, 3.37 ± 0.11
- DYRVLVDKSRKVAHTSY [PRE8] — higher, 2.81 ± 0.12
- EAAAKEKDELDNIEVSK [QCR7] — higher, 3.18 ± 0.098
- EAEFSLRELSCCINAAF [RRP46] — higher, 2.63 ± 0.053
- EAFGNIKIDAKPALFER [MCD1] — higher, 2.11 ± 0.083
- EAGEVKDDGAFVKFLSK [RPL10] — higher, 3.28 ± 0.087
- EAGVTDVKVSISHDDLQ [FAS2] — higher, 2.77 ± 0.049
- EALFQSRPDILSKIKFP [YCG1] — higher, 2.75 ± 0.067
- EALSEKPTREPTPSVKT [RPC53] — higher, 3.11 ± 0.099
- EANGATSFDRTKKTITP [RPL3] — higher, 3.12 ± 0.15
- EAPFLTSGTSSEQFNVW [GAL11] — higher, 2.56 ± 0.091
- EAQIKDWVENELEALKL [FAS2] — higher, 1.96 ± 0.14
- EATQDDDFDMLFGENDT [NUT1] — higher, 2.92 ± 0.071
- ECATCHGNLASCHGHFG [RPO31] — higher, 2.9 ± 0.072
- ECKGCDNKIDIYQIHIP [RPB2] — higher, 3 ± 0.044
- ECPGHFGHIDLAKPVFH [RPO21] — higher, 2.69 ± 0.064
- EDDDNEQHEEKAAEGEE [QCR6] — higher, 3.06 ± 0.083
- EDDLVGVVQMVTDNKTP [TAF14] — higher, 2.72 ± 0.15
- EDEAALAKLVSTIDANF [RPL8A] — higher, 2.91 ± 0.065
- EDEENSDVLLFQLPTTC [RGR1] — higher, 2.63 ± 0.044
